Experimental findings from publication PMC6346213 are described below.

This assay deals with COP9 signalosome (CSN) holo-complex (human (endogenous in HEK293)) (UniProt Q13098). The experiment in a line: SEC; co-fractionation of native HEK293 lysate (freeze-thaw, 0.5% NP-40); Yarra-SEC-4000, 50 mM HEPES pH 7.5, 150 mM NaCl, 4°C; 81 fractions quantified by SWATH-MS; co-elution of protein profiles scored with CCprofiler (5% FDR) and by manual inspection.

“And” between values parts separate entries of the source, which are not always exact repeats. Equal values may be shown once.

UniProt Q13098, sequence (Q13098 whole entry, looked up, one chain of several): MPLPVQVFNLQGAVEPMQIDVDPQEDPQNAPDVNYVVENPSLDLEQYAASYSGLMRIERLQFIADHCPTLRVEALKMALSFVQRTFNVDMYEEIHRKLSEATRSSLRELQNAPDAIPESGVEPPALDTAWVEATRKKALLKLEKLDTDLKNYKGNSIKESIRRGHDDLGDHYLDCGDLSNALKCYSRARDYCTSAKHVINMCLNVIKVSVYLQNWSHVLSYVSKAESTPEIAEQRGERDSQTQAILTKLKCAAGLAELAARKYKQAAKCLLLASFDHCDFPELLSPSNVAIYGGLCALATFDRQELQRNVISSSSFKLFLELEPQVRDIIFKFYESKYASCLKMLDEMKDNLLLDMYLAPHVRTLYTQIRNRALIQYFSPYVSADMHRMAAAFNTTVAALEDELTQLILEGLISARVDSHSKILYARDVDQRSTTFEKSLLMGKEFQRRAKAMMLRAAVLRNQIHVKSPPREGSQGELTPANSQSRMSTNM

For the substance “E3-CRL substrate of the COP9 signalosome (components CUL4A and DDB2) (from UniProt Q13619 1-759; Q92466 1-427) (complex)”, the substrate-bound fraction of CSN holo-complex is 25% and 22%.
